1 substance from US20240024490 can be followed below.

Data set [1] deals with BRD4 (UniProt O60885).
The target of data set [2] is ABL (UniProt P00519).
The target of data set [3] is BTK (UniProt Q06187).
Chain of BTK (Q06187 whole entry): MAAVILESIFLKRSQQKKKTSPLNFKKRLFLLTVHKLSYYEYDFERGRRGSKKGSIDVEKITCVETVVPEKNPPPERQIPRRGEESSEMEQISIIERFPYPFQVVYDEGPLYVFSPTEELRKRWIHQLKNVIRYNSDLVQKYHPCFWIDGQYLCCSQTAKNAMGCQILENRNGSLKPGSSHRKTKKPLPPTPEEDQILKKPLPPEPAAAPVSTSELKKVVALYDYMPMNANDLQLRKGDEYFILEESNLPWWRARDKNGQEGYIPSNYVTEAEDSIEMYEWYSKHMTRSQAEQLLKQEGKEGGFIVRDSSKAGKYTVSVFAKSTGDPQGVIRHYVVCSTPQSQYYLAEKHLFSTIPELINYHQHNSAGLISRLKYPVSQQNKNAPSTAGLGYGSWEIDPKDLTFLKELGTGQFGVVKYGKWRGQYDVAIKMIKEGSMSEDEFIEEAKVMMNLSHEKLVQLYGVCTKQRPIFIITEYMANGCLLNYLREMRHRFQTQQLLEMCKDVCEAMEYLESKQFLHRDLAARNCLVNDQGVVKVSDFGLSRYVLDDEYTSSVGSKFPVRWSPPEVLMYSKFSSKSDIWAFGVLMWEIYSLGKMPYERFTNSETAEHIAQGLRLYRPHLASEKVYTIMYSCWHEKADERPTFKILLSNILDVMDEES

Chain of ABL (P00519 whole entry): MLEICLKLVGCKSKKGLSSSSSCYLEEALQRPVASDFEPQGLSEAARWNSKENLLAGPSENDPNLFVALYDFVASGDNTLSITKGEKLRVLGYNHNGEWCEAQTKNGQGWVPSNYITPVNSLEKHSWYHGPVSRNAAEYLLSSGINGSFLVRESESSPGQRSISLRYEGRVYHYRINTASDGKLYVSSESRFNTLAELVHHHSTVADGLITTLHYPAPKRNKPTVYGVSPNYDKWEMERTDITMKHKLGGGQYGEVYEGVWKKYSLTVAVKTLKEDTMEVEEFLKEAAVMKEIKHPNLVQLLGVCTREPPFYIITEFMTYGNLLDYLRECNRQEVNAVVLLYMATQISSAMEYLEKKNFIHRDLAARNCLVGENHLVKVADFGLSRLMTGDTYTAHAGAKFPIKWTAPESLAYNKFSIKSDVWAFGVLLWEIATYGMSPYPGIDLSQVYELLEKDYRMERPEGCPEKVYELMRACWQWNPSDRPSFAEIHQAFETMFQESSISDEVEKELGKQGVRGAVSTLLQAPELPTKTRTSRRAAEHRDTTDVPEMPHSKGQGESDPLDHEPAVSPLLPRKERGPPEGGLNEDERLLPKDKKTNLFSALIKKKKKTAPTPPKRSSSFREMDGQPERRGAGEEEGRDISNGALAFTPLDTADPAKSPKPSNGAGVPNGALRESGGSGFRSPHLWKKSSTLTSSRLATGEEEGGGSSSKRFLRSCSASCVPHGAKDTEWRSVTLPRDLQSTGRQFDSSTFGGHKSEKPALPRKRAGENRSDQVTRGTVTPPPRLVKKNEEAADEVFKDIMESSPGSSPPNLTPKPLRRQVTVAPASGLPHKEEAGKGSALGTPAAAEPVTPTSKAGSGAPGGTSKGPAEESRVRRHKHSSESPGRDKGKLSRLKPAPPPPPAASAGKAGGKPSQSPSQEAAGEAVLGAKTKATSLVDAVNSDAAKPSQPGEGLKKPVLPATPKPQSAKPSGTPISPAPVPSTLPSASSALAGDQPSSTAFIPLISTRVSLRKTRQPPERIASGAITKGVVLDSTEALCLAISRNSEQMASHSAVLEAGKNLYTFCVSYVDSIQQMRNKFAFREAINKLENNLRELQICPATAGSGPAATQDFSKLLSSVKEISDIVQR

Turning to PKC, in data set [1], the “phosphorylation of BRD4 by PKC in vitro, with PHICS4” value is reported as “BRD4 phosphorylation was detected in the presence of PHICS4” and the “phosphorylation of BRD4 by PKC in vitro, with the chimeric molecule made from (R)-JQ1” value is “absence of phosphorylation when a chimeric molecule generated from the inactive enantiomer of (S)-JQ1 [i.e., (R)-JQ1] was used”. Further, in data set [2], the “phosphorylation of ABL by PKC in vitro, with PHICS5” value is “An ABL-targeting PHICS5 formed using dihydropyrazole core also induced phosphorylation of ABL, compare to DMSO or activator VS1012 treated controls” and the “phosphorylation of ABL by PKC in vitro, with VS558” value was “bifunctional molecule VS558 based on a known inhibitor dasatinib, that binds to a different pocket of ABL kinase [16], also induced its phosphorylation by PKC in vitro”. Besides, in data set [3], the “phosphorylation of BTK by PKC in vitro, with PHICS6 (PKC-motif antibody)” value was “the degree of phosphorylation was higher in the presence of PHICS6”; the “phosphorylation of BTK by PKC in vitro, with the inactive analog iPHICS6” value was “the inactive PHICS analogs lowered phosphorylation induction”; the “phosphorylation of BTK by PKC in vitro, without PHICS (PKC-motif antibody)” value is recorded as “some phosphorylation of BTK by PKC was observed in the absence of PHICS (quantified using PKC-motif antibody)”.
